From paper PMC3070410 come the findings set out here.

The target in the data set is T1, RepA hexameric replicative helicase (plasmid RSF1010, UniProt P20356 1-279).
T1 sequence: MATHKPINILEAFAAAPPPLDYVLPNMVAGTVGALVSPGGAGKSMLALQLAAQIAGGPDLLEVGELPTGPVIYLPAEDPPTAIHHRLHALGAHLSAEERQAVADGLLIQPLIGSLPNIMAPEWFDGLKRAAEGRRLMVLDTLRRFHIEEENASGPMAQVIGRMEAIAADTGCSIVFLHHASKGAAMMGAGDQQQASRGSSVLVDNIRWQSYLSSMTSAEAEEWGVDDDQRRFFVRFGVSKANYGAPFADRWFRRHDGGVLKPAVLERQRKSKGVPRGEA
Nature of the data set: stopped-flow fluorescence anisotropy. Background: Fluorescence polarisation rises when a labelled molecule tumbles more slowly, as on binding a larger partner.

B1: dT(pT)19-Fl-3' (21-mer) (ssDNA)
DNA: TTTTTTTTTTTTTTTTTTTT
modifications: 3' amino six-carbon linker residue
As to B1, the binding result is reported as “binds”.
